Assay results from patent US12012446B2, “Epstein-Barr virus antibodies and uses thereof” (priority 2017, dated 2024).
Substitutions are numbered along the chain they refer to.

B1: HB2: murine anti-EBV gp350 mAb, IgG2a κ; SEQ ID NO: 104 / 105 (antibody, V domains shown)
VH: PELKKPGETVKISCKASGYTFTAYSMHWVKLTPGKGLKWMGWINTKTGEPTYADDFKGRFAFSLETSASTAYLQINNLKNEDTATYFCAPYGYALDYWGQGTSVTVSSAKTTPPSVYPLAPGSAAQTNSMVTLG
VL: AILSASPGEKVTMTCRATSSVNYMHWYQQKPGSSPKPWIYATSNLASGVPARFSGSGSGTSYSLTISRVEAEDAATYYCQQWSSNPPTFGAGTKLELKRADAAPTV
modifications: heavy chain mAb HB2; light chain mAb HB2
B2: HB9: murine anti-EBV gp350 mAb, IgG2a κ; SEQ ID NO: 116 / 117 (antibody, V domains shown)
VH: GGLVKPGGSLKLSCAASGFTFSSYTMSWVRQTPEKRLEWVATISSGGSYIYYPDSVKGRFTISRDNAKNTLYLQMSSLKSEDTAIYYCTREDFYYGSSYGFFDVWGAGTTVTVSSAKTTAPSVYPLAPVCGDTTGSSVTLG
VL: LSLPVSLGDQASISCRSSQSIVHSNGNTYLEWYLQKAGQSPKLLIYKVSNRFSGVPDRFGGSGSGTDFTLKISRVEAEDLGVYYCFQGSHVPYTFGGGTKLEIKRADAAPTV
modifications: heavy chain mAb HB9; light chain mAb HB9
B3: HB22: murine anti-EBV gp350 mAb, IgG1 κ; SEQ ID NO: 130 / 131; non-nAb (antibody, V domains shown)
VH: PGLVAPSQSLSITCTVSGFSLTNYGIHWVRQPPGKGLEWLVVIWSDGSTIYNSALKSRLSISKDNSKSQVFLKMNSLQTDDTAMYYCARNYYGNSYPAWFAYWGQGTLVTVSAAKTTPPSVYPLAPGSAAQTNSMVTLG
VL: B2 VL with A37P, G60S, K71R, Y93W
modifications: heavy chain mAb HB22; light chain mAb HB22
notes: murine anti-EBV gp350 mAb, IgG1 κ; non-nAb
B4: HB17: murine anti-EBV gp350 mAb, IgG2b κ; SEQ ID NO: 126 / 127; non-nAb (antibody, V domains shown)
VH: AELVIPGASVKVSCKASGYTFTSYWIHWVKQWPGQGLEWIGEINPNNGHTNYNEKFKSKATLTVDKSSSTAYMQLSSLTSEDSAVYYCARNLFYYSRPDYWGQGTSVTVSSAKTTPPSVYPLAPGCGDTTGSSVTLG
VL: SSLSASLGDRVTISCRASQDIGNYLNWYQQKPDGTIKLLIYYTSRLHSGVPSRFSGSGSGTDYSLTISNLEEEDIATYFCQQGNTLPPTFGGGTKLEIKRADAAPTV
modifications: heavy chain mAb HB17; light chain mAb HB17
notes: murine anti-EBV gp350 mAb, IgG2b κ; non-nAb
B5: HB3: murine anti-EBV gp350 mAb, IgG2a κ; SEQ ID NO: 106 / 107 (antibody, V domains shown)
VH: AELVRPGASVKLSCKASGYTFASYWMQWVKQWPGQGLEWIGEINPNNGHTNYNERFKNKASLTVDKSSSTAYMQLSSLTSEDSAVYYCARNLYYYGRPDYWGQGTSVTVSSAKTTAPSVYPLAPVCGDTTGSSVTLG
VL: B4 VL
modifications: heavy chain mAb HB3; light chain mAb HB3

What was measured:
[1] = biological target: T1, purified EBV gp350/220 (recombinant EBV gp350 ectodomain) (Epstein-Barr virus, UniProt P03200); assay: Indirect ELISA on recombinant EBV gp350 ectodomain; type: binding; settings: purified antibodies 10 μg/ml
T1 construct: purified EBV gp350 ectodomain protein (AA 4-863); purchased Immune Technology Corporation
Protocol: Briefly, immunoplates (Costar 3590; Corning Incorporated) were coated with 50 μl of 0.5 μg/ml recombinant EBV gp350 ectodomain (Immune Technology Corporation) diluted in 1× phosphate buffered saline (PBS, pH 7.4) and incubated overnight at 4° C. After washing three times with 1×PBS containing 0.05% (v/v) Tween 20 (washing buffer), plates were blocked with 100 μl washing buffer containing 2% (w/v) bovine serum albumin (BSA) (blocking buffer) then incubated for 1 h at room temperature and washed as above. 100 μl of hybridoma supernatant or 50 μl of 10 μg/ml purified mAbs was added to each well (in triplicate) and incubated for 2 h at room temperature. […] The plates were washed as described above, followed by incubation with 50 μl of goat anti-mouse IgG HRP-conjugated secondary antibody (1:2,000 diluted in 1×PBS) at room temperature for 1 h. The plates were washed again and 100 μl of chromogenic substrate 2,2′-azino-bis (3-ethylbenzothiazoline-6-sulphonic acid) (ABTS, Life Science Technologies) was added. The reaction was stopped using 100 μl of ABTS peroxidase stop solution containing 5% sodium dodecyl sulfate (SDS) in water. The absorbance was read at an optical density of 405 nm using an ELISA reader (Molecular Devices). All experiments were performed in triplicate and confirmed in three independent experiments.
ELISA binding of anti-gp350 and anti-gH/gL to soluble gp350 and gH/gL proteins was performed. Soluble EBV gp350 and gH/gL proteins were used as the target antigen at 0.5 μg/ml. 1× phosphate buffered saline (PBS) was used as negative (not shown) control. Bound antibodies were detected using HRP-conjugated anti-mouse or anti-human IgG (1:2,000).

[2] = test system: EBV-eGFP infection of Raji cells; assay: EBV neutralization assay in Raji cells; type: cell-based, Epstein-Barr virus; settings: for neutralization of EBV in Raji cells (in words): spin-column purified mAbs, 12.5, 25, 50 and 100 μg/ml; for blocking of EBV infection of Raji cells (in words): protein G and size-exclusion chromatography-purified mAbs, 12.5-100 μg/ml
Protocol: EBV neutralization assay was performed in Raji cells as previously described (47). Briefly, purified individual anti-gp350 mAbs were incubated with purified AGS-EBV-eGFP (titer calculated to infect at least 8% of HEK293 cells seeded in 100 μl of serum-free DMEM) for 2 hours at 37° C. To represent EBV infection of B cells, the pre-incubated anti-gp350 mAbs/AGS-EBV-eGFP were used to infect 5×10^5 Raji cells seeded in a 96-well plate for 2 hours at 37° C. Neutralizing 72A1 and non-neutralizing 2L10 anti-gp350 mAbs served as positive and negative controls, respectively. Infected cells were washed three times with PBS to remove any unbound viruses and antibodies. Washed, infected cells were incubated in 96-well plates at 37° C. for 48 hours post-infection and the number of eGFP+ (infected) cells was determined using flow cytometry. All dilutions were performed in quintuplicate and the assays were repeated three times. Antibody EBV neutralization activity was calculated as: % neutralization=(EBValone−EBVmAb)/(EBValone)×100.
However, this antibody was recently reported to be a mixture of both functional and non-functional antibodies (50). […] The percentage of eGFP+ cells (percent infection) was determined using flow cytometry as described (47). The nAbs 72A1 and E1D1 were used as positive controls, whereas the anti-gp350 non-neutralizing mAb 2L10 and KSHV gH/gL mAb 54A1 were used as negative controls. Because HB4, HB13, HB15, HB16, HB19, HB21, and HB23 were confirmed to be polyclonal based on isotyping and/or sequence data, they were eliminated from further consideration in the neutralization assay. HB18 was not used in neutralization experiments because it was identical to HB8.
The purified eGFP-tagged-EBV was titered in Raji cells to determine percent EBV infection using a range of volumes (50-250 μl) (FIG. 5A). Then initial neutralization of EBV was conducted in Raji cells using purified mAbs at various concentrations (12.5, 25, 50, and 100 μg/ml).
EBV-eGFP+ cells were enumerated using flow cytometry.

[3] = biological target: T2, gp350 protein on gp350 expressing CHO cells (Epstein-Barr virus, UniProt P03200); assay: Flow cytometry of CHO cells stably expressing EBV gp350; type: binding; settings: concluded from flow cytometry and immunoblot
T2 construct: stably co-transfected with full-length pCAGGS-gp350/220 and pCI-puro vector; expressed in transfected cells; host or cells: CHO cells
Protocol: To assess the ability of purified anti-gp350 mAb to detect surface expression of EBV gp350 protein by flow cytometry, CHO cells that stably express EBV gp350 were harvested and stained with purified anti-gp350 (10 μg/ml), followed by AF488 goat anti-mouse IgG secondary antibody. Flow cytometric analysis was performed on a C-6 FC (BD Biosciences) and data was analyzed using FlowJo Cytometry Analysis software (FlowJo, LLC) as described (47). All the experiments were independently repeated three times.
These novel antibodies were analyzed by flow cytometric analysis for surface expression of gp350 protein on 10^6 CHO cells transfected with 1 μg of pCAGGS-gp350. gp350 expressing cells were resuspended in PBS, stained with anti-gp350 mAb, which detects the gp350 ED, followed by secondary Ab goat anti-mouse conjugated to AF488. Additionally, western blot analysis was conducted on untransfected and pCAGGS-gp350 transfected CHO lysate. Anti-gp350 mAb 72A1 was used as a positive control (1:100) and anti-gp350 hybridoma clone supernatants were used at 1:50, and anti-mouse secondary antibody was used at 1:2000.
Flow cytometric analysis of gp350 and gH/gL specificity was performed. CHO wild type cells and gp350 or gH/gL-expressing CHO cells were stained with primary antibodies, followed by secondary goat anti-mouse or anti-human conjugated to AF488. Unstained cells and cells stained with secondary goat anti-mouse or anti-human conjugated to AF488 alone, were used as negative controls.

[4] = biological target: T3, EBV gp350 stably expressed on CHO cells (Epstein-Barr virus, UniProt P03200); assay: Epitope mapping by competitive cell binding assay with biotinylated mAbs; settings: for % inhibition of biotinylated nAbs (biotinylated m72A1): biotinylated m72A1 1 μg/ml
T3 construct: stably co-transfected with full-length pCAGGS-gp350/220 and pCI-puro vector; expressed in transfected cells; host or cells: CHO cells
Protocol: To evaluate conformation epitope mapping of the selected mAbs, competitive binding assays were conducted using biotinylated mAbs. A one-step antibody biotinylation kit (MACS Miltenyi Biotec) was used to biotinylate the mAbs. Approximately 1×10^5 CHO cells that stably expressed EBV gp350 were incubated for 2 hours with serially diluted ([…]) unlabeled competitor mAbs and non-specific anti-KSHV gH/gL 54A1 mAb. After being washed with PBS, the cells were incubated for 2 hours in the presence of 1 μg/ml biotinylated mAbs. To determine maximum binding, cells in which the biotinylated mAb was added in the absence of unlabeled mAbs were included in the assay. Cells were washed with PBS, followed by incubation for 1 hour with anti-biotin AF488 at a dilution of 1:500. After the final wash in PBS, cells were resuspended in 1% paraformaldehyde and analyzed by flow cytometry as described above. Percentage of inhibition was calculated as: 100−[(% fluorescent cells with competitor mAb/% fluorescent cells without competitor mAb)×100]. The complete prevention of binding of a biotinylated mAb by its unlabeled counterpart was used as a validation of the assay, as previously described (84).
At least seven unique CD21 binding epitopes on EBV gp350 have been predicted (Table 3).

T3 sequence (P03200 whole entry): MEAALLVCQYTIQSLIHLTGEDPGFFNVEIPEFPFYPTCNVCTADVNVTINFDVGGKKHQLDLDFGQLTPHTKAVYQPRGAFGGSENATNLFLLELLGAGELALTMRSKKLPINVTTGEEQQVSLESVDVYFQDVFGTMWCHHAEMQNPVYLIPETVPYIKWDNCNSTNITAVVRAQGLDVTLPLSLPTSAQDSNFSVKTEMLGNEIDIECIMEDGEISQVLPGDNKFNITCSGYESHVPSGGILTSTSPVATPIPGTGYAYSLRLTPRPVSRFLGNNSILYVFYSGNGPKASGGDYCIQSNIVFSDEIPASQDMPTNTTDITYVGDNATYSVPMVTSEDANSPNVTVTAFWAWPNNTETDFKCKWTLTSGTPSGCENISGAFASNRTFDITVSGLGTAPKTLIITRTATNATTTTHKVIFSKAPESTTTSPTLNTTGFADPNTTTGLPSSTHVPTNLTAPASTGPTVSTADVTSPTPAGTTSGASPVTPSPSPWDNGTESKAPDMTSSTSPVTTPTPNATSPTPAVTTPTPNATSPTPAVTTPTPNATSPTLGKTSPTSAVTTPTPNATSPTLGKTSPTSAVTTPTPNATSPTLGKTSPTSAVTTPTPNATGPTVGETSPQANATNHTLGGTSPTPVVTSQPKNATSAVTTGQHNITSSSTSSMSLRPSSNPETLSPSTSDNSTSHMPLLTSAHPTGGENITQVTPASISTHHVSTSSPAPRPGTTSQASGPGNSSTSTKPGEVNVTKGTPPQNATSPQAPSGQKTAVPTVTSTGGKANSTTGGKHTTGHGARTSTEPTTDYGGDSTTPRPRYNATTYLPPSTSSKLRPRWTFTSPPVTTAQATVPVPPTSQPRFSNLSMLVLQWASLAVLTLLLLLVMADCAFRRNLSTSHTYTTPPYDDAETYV
T2 sequence (P03200 whole entry): as above
T1 sequence (P03200 4-863): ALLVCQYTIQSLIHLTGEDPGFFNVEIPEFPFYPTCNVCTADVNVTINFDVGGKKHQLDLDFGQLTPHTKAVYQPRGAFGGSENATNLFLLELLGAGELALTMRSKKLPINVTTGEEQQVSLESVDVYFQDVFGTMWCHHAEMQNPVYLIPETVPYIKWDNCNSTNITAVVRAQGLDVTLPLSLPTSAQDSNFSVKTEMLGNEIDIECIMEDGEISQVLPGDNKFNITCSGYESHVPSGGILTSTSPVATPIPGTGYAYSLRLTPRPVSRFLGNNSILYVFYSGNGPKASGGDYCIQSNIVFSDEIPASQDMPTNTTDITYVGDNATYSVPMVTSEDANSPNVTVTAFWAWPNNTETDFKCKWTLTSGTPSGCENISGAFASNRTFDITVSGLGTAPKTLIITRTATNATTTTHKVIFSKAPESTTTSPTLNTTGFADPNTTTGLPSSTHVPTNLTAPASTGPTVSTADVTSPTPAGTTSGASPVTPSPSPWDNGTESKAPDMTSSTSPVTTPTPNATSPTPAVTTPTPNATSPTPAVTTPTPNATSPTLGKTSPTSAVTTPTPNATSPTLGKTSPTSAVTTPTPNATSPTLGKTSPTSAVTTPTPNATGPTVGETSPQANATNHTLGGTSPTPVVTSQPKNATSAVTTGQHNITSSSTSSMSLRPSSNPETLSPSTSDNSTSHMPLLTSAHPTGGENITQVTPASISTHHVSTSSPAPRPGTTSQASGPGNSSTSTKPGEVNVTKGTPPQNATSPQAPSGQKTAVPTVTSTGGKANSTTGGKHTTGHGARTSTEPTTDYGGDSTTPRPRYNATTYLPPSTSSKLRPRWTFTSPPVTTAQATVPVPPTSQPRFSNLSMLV

| Molecule | ELISA binding to purified EBV gp350/220 [1] | neutralization of EBV in Raji cells (in words) [2] | type of gp350 epitope recognized (linear / conformational) [3] | % inhibition of biotinylated nAbs (biotinylated m72A1) ([4]; unlabeled mAb 67.5 μg/ml) [%] | % inhibition of biotinylated nAbs (biotinylated m72A1) ([4]; unlabeled mAb 125 μg/ml) [%] | % inhibition of biotinylated nAbs (biotinylated m72A1) ([4]; unlabeled mAb 250 μg/ml) [%] | % inhibition of biotinylated nAbs (biotinylated m72A1) ([4]; unlabeled mAb 500 μg/ml) [%] | blocking of EBV infection of Raji cells (in words) [2] | competitive binding versus m72A1 and h72A1 (in words) ([4]; biotinylated antibodies) |
| --- | --- | --- | --- | --- | --- | --- | --- | --- | --- |
| B1 | + | failed to neutralize EBV infection | only recognized conformational epitopes |  |  |  |  |  |  |
| B2 | + | failed to neutralize EBV infection | recognized both linear and conformational epitopes |  |  |  |  |  |  |
| B3 | + | dose-dependent neutralization |  | 9 | 16 | 3 | 10 | Neither HB17, HB22, nor 54A1 blocked EBV infection |  |
| B4 | + | failed to neutralize EBV infection | recognized both linear and conformational epitopes |  |  |  |  | Neither HB17, HB22, nor 54A1 blocked EBV infection | little to no competitive binding |
| B5 | + | failed to neutralize EBV infection | only recognized conformational epitopes |  |  |  |  |  |  |
